Measured values reported in the PETadex activity labels.

Assays:
p-NP-C4 = settings: pH 8
pNP-C6 = settings: pH 8; 30 °C
[1] = Proxy for plastic degradation [HPLC-UV] (µmol); settings: pH 7
PET [2] = experiment: Proxy for plastic degradation [Absorbance (nm)]; settings: pH 8.5
PBSA = experiment: Proxy for plastic degradation [kcat/Km (catalytic efficiency)] (mM⁻¹s⁻¹); settings: pH 8.2
[3] = Proxy for plastic degradation [Weight/mass loss]; settings: pH 8
PET [4] = experiment: Proxy for plastic degradation [Weight/mass loss]
PCL = experiment: Proxy for plastic degradation [Residual activity]; settings: pH 8
PET [5] = experiment: Proxy for plastic degradation [Released monomer concentration (HPLC/LC-MS) (MHET+TPA)]; settings: pH 8
PET [6] = experiment: Proxy for plastic degradation [adsorption equilibrium constant (K_A), utilising heterogeneous kinetic model]; settings: pH 8
PET [7] = experiment: Proxy for plastic degradation [MHET inhibitor binding constant (beta), utilising the kinetic inhibition model]; settings: pH 8
PET [8] = experiment: Proxy for plastic degradation [hydrolysis rate constant (k_h), utilising heterogeneous kinetic model] (µmol/(cm²·h)); settings: pH 8
pNPB = experiment: Proxy for plastic degradation [Residual activity]; settings: pH 8

B1: unnamed (protein)
chain: MEMLEEHRCFEGWQQRWRHDSSTLNCPMTFSIFLPPPRDHTPPPVLYWLSGLTCNDENFTTKAGAQRVAAELGIVLVMPDTSPRGEKVANDDGYDLGQGAGFYLNATQPPWATHYRMYDYLRDELPALVQSQFNVSDRCAISGHSMGGHGALIMALKNPGKYTSVSAFAPIVNPCSVPWGIKAFSSYLGEDKNAWLEWDSCALMYASNAQDAIPTLIDQGDNDQFLADQLQPAVLAEAARQKAWPMTLRIQPGYDHSYYFIASFIEDHLRFHAQYLLK
p-NP-C4; 37 °C
  Km: 700 µM
  kcat: 0.36 s⁻¹
  kcat/Km: 514 M⁻¹ s⁻¹

B2: unnamed (protein)
chain: MPPHAARPGPAQNRRGRAMAVITPRRERSSLLSRALRFTAAAATALVTAVSLAAPAHAANPYERGPNPTDALLEARSGPFSVSEERASRFGADGFGGGTIYYPRENNTYGAVAISPGYTGTQASVAWLGERIASHGFVVITIDTNTTLDQPDSRARQLNAALDYMINDASSAVRSRIDSSRLAVMGHSMGGGGTLRLASQRPDLKAAIPLTPWHLNKNWSSVRVPTLIIGADLDTIAPVLTHARPFYNSLPTSISKAYLELDGATHFAPNIPNKIIGKYSVAWLKRFVDNDTRYTQFLCPGPRDGLFGEVEEYRSTCPF
p-NP-C4; 60 °C
  Km: 673 µM
  kcat: 483 s⁻¹
  kcat/Km: 718000 M⁻¹ s⁻¹

B3: unnamed (protein)
chain: MRKLYLFLFLTLISPISISIFHAQCTGATVESLTNPGPYTVATLSEADGVRNGPKYAGSTIYYPTNATPPYASIAIVPGFTAAPSSVQEWGPFYASHGIVAIIIGTNSLYDQPEARALALLDALETIKQENGRATSPLIGKLDVTKLAVSGWSMGGGGAQRAAVLDNTISAVVALCPYLTSPQLNHTVPVLIFSGQSDPTAPPSQHANVHYNTTPGTTNKLLFEVKNGNHSVANSPTGGGGAVGKLALSWLKIYLEKNDCYCSVLATAIVNSTTVSSKISQSYQCNNALGVVDSKTRFNLYPNPTKDFVQVNVREMASYQLSSSTGQIVLKGIVTSSKNQIDLSKLPAGVYYLQINGETIKVIKKQ
pNP-C6
  Km: 300 µM
  kcat: 8.9 s⁻¹
  kcat/Km: 29700 M⁻¹ s⁻¹

B4: unnamed (protein)
chain: MKKIYAVALFFLATSFAPNIIFAQCGDVTIESLTNPGPYEVATLTEADGLRNGPDYQGATVYYPTNATPPFASIAIVPGFTALPSSVEEWGPFYASHGIVTIIIGTNSLFDFPEERAVALIDALETMRQENTRSSSPLENQLDVDKFAVSGWSMGGGGAQRAAVLDNTIKGVVALCPWLPNASLNHDSPVLIFSGENDPTAPPAQHADLHYAATPNTTNKLLFEIENGNHSVANTPNGGNGAVGKIALSWLKLYVDENDCYCPLLTESLLVDPPAASKVLSSFECELLSVPDNSFAISVYPNPTHDFVNINSTNPVHFEVYSALGQRLLSGELTQSEKQIDFSNFAKGLYYVRLGNETVKIVRN
pNP-C6
  Km: 1370 µM
  kcat: 19.1 s⁻¹
  kcat/Km: 13900 M⁻¹ s⁻¹

B5: unnamed (protein)
chain: MANPYERGPNPTDALLEASSGPFSVSEENVSRLSASGFGGGTIYYPRENNTYGAVAISPGYTGTEASIAWLGGRIASHGFVVITIDTITTLDQPDSRAEQLNAALNHMINRASSTVRSRIDSSRLAVMGHSMGGGGTPRLASQRPDLKAAIPLTPWHLNKNRSSVTVPTLIIGADLDTIAPVATHAKPFYNSLPSSISKAYLELDGATHFAPNIPNKIIGKYSVAWLKRFVDNDTRYTQFLCPGPRDGLFGEVEEYCSTCPF
[1]
  Proxy for plastic degradation: 0.6

B6: unnamed (protein)
chain: MLAVWDDTLAHPVRGRDRELATLTGLLDNTSGRRGTGMVVVGAPGTGKTTLLNALVEHAEGFQVLWAEGSAAESDVRFAGVEQLLRPLESLVSLLPDDRGRALRPVWGLPADDEGQVGSLAVPAAVSALLGLAARRQPVLCCVDSAHLLDSASLSALAFAARRAHHAGVVFVFAVDCTADTEVDTETSVWGELPRLRLGRLDDEAAHALLRDRLGASLPHDLADSLLDVGHGNPLALVELAESLTPEHLCGRAAPPSSPPPEGRLCRTLGHRLSALSEGAREVVALAGISEGLDEQLTCRVLPHHRSTLAEAVRSGLVVLDGDTVRTAADTVPSALLAALTPQDIVQAHHRMAEAAEAVGDRDRAVWHRAAIAMAPDPALVADLDDIAERARAAAAHATAAAASERAAALTSDTKERARRLVAAATDHWASGRPQRARTALRLAAPLSDSVLGARVSRLAGEIELRRGDPSVAATKLISTARQLASTHRTLAASALMLAGEASFVAGDNARYCLTAKDAALLCGPEEWPATRVVREHFTAMSATFRGEHSAAAAPLRSLVELGETTPDPTAKTLASQAAFTLGDAERSRDLALQAVVCARARGDESGVPWALVYAALSALLSGQLSAASTTALEGLQVARSLGQSNSAVDHVTVLAMLAALQGDEETALQRLQAANTELAERGLGRPSALATWAAACVDLAHDRPAEAFDRFRRMTVGRSRHCVPLRVMAVPHFVEAAVRCGEKEVARRSLVTFEHWANTTGGTARVALAHRCHALLAEQDGEAQERFTEAVRLHREADAPYDLAVTQLLYASHLRRSRRPKQARELLREAVQLFDDLGATHWVERASQELRACGHPGRGKPHLSRGLSPQQERIAQLVADGATNKEIATQLFISHRTVDHHLRNIFAKLDVRSRVQLAALFR
PET [2]
  Proxy for plastic degradation: 12.5 mM
PBSA
  Proxy for plastic degradation: 308

B7: unnamed (protein)
chain: MDGVLWRVRTAALMAALLALAAWALVWASPSVEAQSNPYQRGPNPTRSALTADGPFSVATYTVSRLSVSGFGGGVIYYPTGTSLTFGGIAMSPGYTADASSLAWLGRRLASHGFVVLVINTNSRFDYPDSRASQLSAALNYLRTSSPSAVRARLDANRLAVAGHSMGGGGTLRIAEQNPSLKAAVPLTPWHTDKTFNTSVPVLIVGAEADTVAPVSQHAIPFYQNLPSTTPKVYVELDNASHFAPNSNNAAISVYTISWMKLWVDNDTRYRQFLCNVNDPALSDFRTNNRHCQ
[3]
  Proxy for plastic degradation: 9 mg
PET [4]; pH 8
  Proxy for plastic degradation: 1.5 mg

B8: unnamed (protein)
chain: MARTMRSRVVAGAVACAMSIAPFAGTTAVMTLATTHAAMAATAPAAGYAATRYPIILVHGLSGTDKYAGVLEYWYGIQEDLQQNGATVYVANLSGFQSDDGPNGRGEQLLAYVKTVLAATGATKVNLVGHSQGGLSSRYVAAVAPDLVASVTTIGTPHRGSEFADFVQDVLAYDPTGLSSSVIAAFVNVFGILTSSSHNTNQDALAALQTLTTARAATYNQNYPSAGLGAPGSCQTGAPTETVGGNTHLLYSWAGTAIQPTLSVFGVTGATDTSTLPLVDPANVLDLSTLALFGTGTVMINRGSGQNDGLVSKCSALYGKVLSTSYKWNHLDEINQLLGVRGAYAEDPVAVIRTHANRLKLAGV
[3]
  Proxy for plastic degradation: 2.8 mg
PET [4]; pH 8
  Proxy for plastic degradation: 0 mg

B9: unnamed (protein)
chain: MELALALSLIASVAAAPTATLANGDTITGLNAIINEAFLGIPFAEPPVGNLRFKDPVPYSGSLDGQKFTSYGPSCMQQNPEGTYEENLPKAALDLVMQSKVFEAVSPSSEDCLTINVVRPPGTKAGANLPVMLWIFGGGFEVGGTSTFPPAQMITKSIAMGKPIIHVSVNYRVSSWGFLAGDEIKAEGSANAGLKDQRLGMQWVADNIAAFGGDPTKVTIFGESAGSMSVMCHILWNDGDNTYKGKPLFRAGIMQSGAMVPSDAVDGIYGNEIFDLLASNAGCGSASDKLACLRGVSSDTLEDATNNTPGFLAYSSLRLSYLPRPDGVNITDDMYALVREGKYANIPVIIGDQNDEGTFFGTSSLNVTTDAQAREYFKQSFVHASDAEIDTLMTAYPGDITQGSPFDTGILNALTPQFKRISAVLGDLGFTLARRYFLNHYTGGTKYSFLSKQLSGLPVLGTFHSNDIVFQDYLLGSGSLIYNNAFIAFATDLDPNTAGLLVKWPEYTSSSQSGNNLMMINALGLYTGKDNFRTAGYDALFSNPPSFFV
[3]
  Proxy for plastic degradation: 0.2 mg
PET [4]; pH 8
  Proxy for plastic degradation: 0 mg

B10: unnamed (protein)
chain: ANPYERGPNPTDALLEARSGPFSVSEENVSRLSASGFGGGTIYYPRENNTYGAVAISPGYTGTEASIAWLGERIASHGFVVITIDTITTLDQPDSRAEQLNAALNHMINRASSTVRSRIDSSRLAVMGHSMGGGGSLRLASQRPDLKAAIPLTPWHLNKNSSVTVPTLIIGADLDTIAPVATHAKPFYNSLPSSISKAYLELDGATHFAPNIPNKIIGKYSVAWLKRFVDNDTRYTQFLCPGPRDGLFGEVEEYRSTCPFY
PET [4]; pH 8
  Proxy for plastic degradation: 15.9%
PCL
  Proxy for plastic degradation: 36.5%
PET [5]
  Proxy for plastic degradation: 27 µM
PET [6]
  Proxy for plastic degradation: 0.338 mL/µg
PET [7]
  Proxy for plastic degradation: 0.738 L/mmol
PET [8]
  Proxy for plastic degradation: 0.094

B11: unnamed (protein)
chain: ANPYERGPNPTDALLEARSGPFSVSEENVSRLSASGFGGGTIYYPRENNTYGAVAISPGYTATEASIAWLGERIASHGFVVITIDTITTLDQPDSRAEQLNAALNHMINRASSTVRSRIDSSRLAVMGHSMGGGGSLRLASQRPDLKAAIPLTPWHLNKNWSSVTVPTLIIGADLDTIAPVATHAKPFYNSLPSSISKAYLELDGATHAAPNIPNKIIGKYSVAWLKRFVDNDTRYTQFLCPGPRDGLFGEVEEYRSTCPFYPNSSSVDKLAAALE
PET [4]; pH 9, 6 h
  Proxy for plastic degradation: 20%

B12: unnamed (protein)
chain: SNPYQRGPNPTRSALTADGPFSVATYTVSRLSVSGFGGGVIYYPTGTSLTFGGIAMSPGYTADASSLAWLGRRLASHGFVVLVINTNSRFDYPDSRASQLSAALNYLRTSSPSAVRARLDANRLAVAGHSMGGGGTLRIAEQNPSLKAAVPLTPWHTDKTFNTSVPVLIVGAEADTVAPVSQHAIPFYQNLPSTTPKVYVELDNASHFAPNSNNAAISVYTISWMKLWVDNDTRYRQFLCNVNDPALSDFRTNNRHCQHHHHHH
pNPB; 40 °C
  Proxy for plastic degradation: 100%
pNPB; 50 °C
  Proxy for plastic degradation: 100%
pNPB; 90 °C
  Proxy for plastic degradation: 0%
pNPB; 95 °C
  Proxy for plastic degradation: 0%
